Laboratory results published in patent US12331310B2, “Cell membrane penetrating conjugates for gene editing” (priority 2019, dated 2025).
Where “and” joins values, the source holds several entries; their conditions need not be identical. Equal entries are not always repeated.

Key:
Format in all cases: cell-based
HeLa cells [1] = assay: Cellular uptake of drug (ruthenium metal complex), monitored by MTT assay; conditions: 24 hours, uptake correlated to cell death by MTT assay
Description: Cellular uptake of drug—HeLa cells were used for determining the enhanced uptake of the drug using the cell penetrating conjugate of the present invention. HeLa cells were seeded at a concentration of 10,000 in a 96-well plate and allowed to grow for 6-8 hours. Ruthenium metal complex and EfsQNR were mixed in different ratios of 1:1, 1:2, and 1:3 to form a conjugate, which was subsequently added to the cells. […] The cell death after 24 hours was monitored by MTT assay as described previously and was correlated to the percentage uptake of ruthenium-EfsQNR conjugate by HeLa cells.
FIG. 16 depicts the cellular uptake of the ruthenium metal complex Ru(CO)3Cl glycinate in HeLa cells. The ruthenium metal complex was conjugated with EfsQNR protein to form a conjugate consisting of ruthenium metal complex-EfsQNR. The HeLa cells were treated with the ruthenium metal complex-EfsQNR conjugate as described above (see “Cellular penetration studies” above) and uptake of the complex was detected by checking the viability of the cells by performing MTT assay as described previously. […] Therefore, it can be ascertained that the conjugate comprising EfsQNR protein facilitated 50-fold higher cellular uptake as compared to ruthenium metal complex alone. […]

[2] = system: yeast cells (Saccharomyces cerevisiae, Kluveromyces marxianus and Candida albicans); assay: Uptake of A-520 labelled proteins in yeast cells; conditions: protein labelled with green fluorescent dye (A-520), 10 μM, 24 hours
Description: (§1) The uptake of labelled proteins was checked by treating E-coli and yeast (Kluveromyces) cells with different labelled proteins such as AlbG (SEQ ID NO: 1), EfsQNR (SEQ ID NO: 2). E coli or Kluveromyces cells were inoculated and grown overnight until OD reached 0.6. The cells were diluted to 50 times and 3 micromolar labelled protein (conjugate) was added. The cells were further grown under standard growth condition (37° C. shaking condition) for 24 h. The treated cells were then centrifuged and washed in PBS for 3-4 times. Then the cells were dispersed in 100 microliter PBS and then imaged in fluorescence/confocal microscope.
(§2) • Respective bacteria and yeast strains were inoculated the day before the experiment and allowed to grow overnight; • The cells were centrifuged and 2 ml fresh media was added; • 100-200 μL of cells were added to the mixture; • 10 μM of green labelled CPP was added; • Fresh media was added to bring the volume to 1 mL; • After 24 hours the treated cells were centrifuged and washed in PBS 3-4 times; • the cells were dispersed in 100 microliter PBS and then imaged in fluorescence/confocal microscope (FIGS. 25 and 26). […]

[3] = system: plant cells (Arabidopsis); assay: Uptake of A-520 labelled proteins in plant cells; conditions: protein labelled with green fluorescent dye (A-520), 20 μM, 24 hours
Description: • Respective bacteria and yeast strains were inoculated the day before the experiment and allowed to grow overnight; • The cells were centrifuged and 2 ml fresh media was added; • 100-200 μL of cells were added to the mixture; • 10 μM of green labelled CPP was added; • Fresh media was added to bring the volume to 1 mL; • After 24 hours the treated cells were centrifuged and washed in PBS 3-4 times; • the cells were dispersed in 100 microliter PBS and then imaged in fluorescence/confocal microscope (FIGS. 25 and 26). Protocol for Uptake in Plant Cells (Arabidopsis): • Plants were grown for 7 days prior to the experiment; • 20 μM of different cell-penetrating proteins such as AlbG (SEQ ID NO: 1), EfsQNR (SEQ ID NO: 2) labelled with a green fluorescent dye (A-520) were added to the plants in buffer [3 plants grown for 7 days] in 500 μL PBS; • The mixture was placed in a growth room for 24 hours under standard growth conditions (kept static in a room of continuous supply of light and 23° C. temperature); • The plants were washed with PBS 3 times and fresh PBS was then added and cells visualized under microscope. Non-coloured cells such as the cells of the roots and stems were chosen for visualisation to avoid interference (FIGS. 23 and 24). […]

HeLa cells [4] = assay: MTT toxicity assay of AlbG and EfsQNR proteins; conditions: 30 μM protein; for viability as compared to the control cells: MTT; for absorbance values at 570 nm in MTT assay: triplicates, control wells 1.341-1.413
Description: Toxicity assay—The industry-standard MTT assay (ex-Sigma Aldrich) was performed to analyse the toxicity of β-helical protein-cytotoxic drug conjugates against mammalian cells, for example HeLa cells. The cells were cultured by using standard protocol. One million cells were seeded in confocal plates (1 cm dish), grown for 6-8 h. A mixture of the cytotoxic drug and the EfsQNR protein (mixed at a ratio of 2:1) was added to the cells and incubated at room temperature for 15 minutes to 24 h to 72 h. After the incubation, the cells were washed with PBS and treated with MTT and further incubated for 24 hours. The cells were then washed and analysed for absorbance values at 570 nm. Viable cells with active metabolism convert MTT into a purple coloured formazan product with an absorbance maximum near 570 nm. Dead cells cannot convert MTT into formazan therefore, by analysing the absorbance values at 570 nm percentage of viable cells can be calculated for a given protein or any other molecule.
MTT assay as described previously was employed to study toxicity of AlbG and EfsQNR proteins against HeLa cells. For the toxicity assay, samples of Placebo, control, AlbG (30 μM) and EfsQNR (30 μM) were used in triplicates. On observing the values, it can be appreciated that the cells treated with 30 μM of AlbG and 30 μM of EfsQNR display 95% viability as compared to the control cells.
The placebo for this experiment was 20 mM Tris buffer of pH 8.0, whereas, the control considered was only HeLa cells without adding any protein or other substrate.

zebrafish embryos = assay: Uptake of A-520 labelled proteins in zebrafish embryos; conditions: protein labelled with green fluorescent dye (A-520), 10 μM, 2 h
[5] = system: drug resistant strains of bacteria (Pseudovibrio sp. Ad37/5/13/14 and Enterobacter); assay: Uptake of A-520 labelled proteins in bacteria; conditions: protein labelled with green fluorescent dye (A-520), 10 μM, 24 hours
Description: as §1, §2

drosophila embryos = assay: Uptake of A-520 labelled proteins in drosophila embryos; conditions: protein labelled with green fluorescent dye (A-520), 10 μM, 2 h

Row | Molecule | cellular uptake (HeLa cells [1]) [%] | uptake observed by confocal laser scanning microscopy [2] | uptake observed by confocal laser scanning microscopy [3] | viability as compared to the control cells (HeLa cells [4]) [%] | absorbance values at 570 nm in MTT assay (HeLa cells [4]) | uptake observed by confocal laser scanning microscopy (zebrafish embryos) | uptake observed by confocal laser scanning microscopy [5] | uptake observed by confocal laser scanning microscopy (drosophila embryos)
1 | NCC(=O)O.[C-]#[O+].[C-]#[O+].[C-]#[O+].[Cl][Ru] [ruthenium metal complex, Ru(CO)3Cl glycinate] | 0.5 | – | – | – | – | – | – | –
2 | AlbG: recombinant β helical pentapeptide-repeat protein AlbG, amino acid sequence SEQ ID NO: 1 (protein, Amino acid sequence of AlbG protein) MPAKTLESKDYCGESFVSEDRSGQSLESIRFEDCTFRQCNFTEAELNRCKFRECEFVDCNLSLISIPQTSFMEVRFVDCKMLGVNWTSAQWPSVKMEGALSFERCILNDSLFYGLYLAGVKMVECRIHDANFTEADCEDADFTQSDLKGSTFHNTKLTGASFIDAVNYHIDIFHNDIKRARFSLPEAASLLNSLDIELSD | – | taken up | taken up | 95 | 1.03 and 0.932 and 1.002 | taken up | taken up | taken up
3 | EfsQNR: recombinant β helical pentapeptide-repeat protein EfsQNR, amino acid sequence SEQ ID NO: 2 (protein, Amino acid sequence of EfsQNR protein) GSHMKITYPLPPNLPEQLPLLTNCQLEDEAILENHLYQQIDLPNQEVRNLVFRDAVFDHLSLANGQFASFDCSNVRFEACDFSNVEWLSGSFHRVTFLRCNLTGTNFADSYLKDCLFEDCKADYASFRFANFNLVHFNQTRLVESEFFEVTWKKLLLEACDLTESNWLNTSLKGLDFSQNTFERLTFSPNYLSGLKVTPEQAIYLASALGLVIT | – | taken up | taken up | 95 | 0.901 and 1.111 and 0.971 | taken up | taken up | taken up
